Results taken from patent US12116698.
Where no end group is shown, it is not given here. [ ]: non-standard residue; d: D form. fluorescent label = not defined here; Dap = NC[C@H](N)C(=O)O; Cm = not defined here

What was measured:
[1] = target: Streptavidin, P22629; assay: fluorescence intensity of streptavidin-coated beads at varied peptide concentrations, hyperbola fit
[2] = target: T1, sortase A (SrtA) (S. aureus), Q2FV99; assay: fluorescence polarization (anisotropy), SrtA titrated into peptide solution
T1 chain: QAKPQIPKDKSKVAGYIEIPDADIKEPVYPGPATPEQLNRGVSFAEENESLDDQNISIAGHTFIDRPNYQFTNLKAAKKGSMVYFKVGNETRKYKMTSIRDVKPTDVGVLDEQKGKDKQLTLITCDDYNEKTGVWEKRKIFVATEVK

[3] = target: T1, sortase A (SrtA) (S. aureus), Q2FV99; assay: mean fluorescence intensity of SrtA-coated beads against peptide concentration, curve fit

Chain of Streptavidin, P22629 (P22629 37-163 limits assumed): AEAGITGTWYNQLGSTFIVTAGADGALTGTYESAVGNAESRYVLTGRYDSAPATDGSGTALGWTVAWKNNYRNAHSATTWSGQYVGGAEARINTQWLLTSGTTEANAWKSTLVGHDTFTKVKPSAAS

B1: SA2 (peptide)
peptide: A[Cm]DGRPDRA[Cm]GGG[Dap](fluorescent label)
modifications: not fully specified; reading uncertain; also: fluorescent label not named
[1]
  Kd: 9 µM

B2: SA1 (peptide)
peptide: A[Cm]TPRSANY[Cm]GGG[Dap](fluorescent label)
modifications: not fully specified; reading uncertain; also: fluorescent label not named
[1]
  Kd: 6 µM

B3: W2 (peptide)
peptide: ACLNSSQPSCGGG[Dap](fluorescent label)
modifications: not fully specified (residues 2, 10); cysteine pairing not given here; reading uncertain; also: Cm code not defined, fluorescent label not named
[2]
  Kd: 12 µM
[3]
  Kd: 14 µM

B4: W1 (peptide)
peptide: ACHPVSGQKCGGG[Dap](fluorescent label)
modifications: not fully specified (residues 2, 10); cysteine pairing not given here; reading uncertain; also: Cm code not defined, fluorescent label not named
[3]
  Kd: 14 µM
